Article doi:10.1101/2025.10.01.679806 (bioRxiv, 2025)
Where “and” joins values, the source holds several entries; their conditions need not be identical. Identical values can stand only once.

Tests used:
[1] = target: Bpa 31-146 (Mycobacterium tuberculosis) (UniProt P9WKX3); experiment: NMR titration
[2] = target: Bpa 31-146 (Mycobacterium tuberculosis) (UniProt P9WKX3); experiment: NMR CPMG relaxation dispersion
methyl-TROSY NMR = target: the molecule itself; experiment: methyl-TROSY NMR
native MS = target: the molecule itself; experiment: native MS
[3] = target: the molecule itself; experiment: NMR pulsed-field gradient diffusion

DNA-binding domain of human telomeric repeat-binding factor 1 (residues 378-430) (domain or fragment)
Kd [1]: < 0.2 µM and 1.5 µM | stoichiometry N (hTRF1 molecules per Bpa dodecamer) [1]: 3 | exchange rate between Bpa free and bound with hTRF1 (CPMG) [2]: > 1500 s⁻¹

B1: Bpa 31-146 (domain or fragment)
chain: DSDESSLTDLVEQPAKVMRIGTMIKQLLEEVRAAPLDEASRNRLRDIHATSIRELEDGLAPELREELDRLTLPFNEDAVPSDAELRIAQAQLVGWLEGLFHGIQTALFAQQMAARA
stoichiometry N (methyl-TROSY NMR): 12

B2: wild-type (WT) Mycobacterium tuberculosis bacterial proteasome activator Bpa (Rv3780) (natural protein)
chain: MVIGLSTGSDDDDVEVIGGVDPRLIAVQENDSDESSLTDLVEQPAKVMRIGTMIKQLLEEVRAAPLDEASRNRLRDIHATSIRELEDGLAPELREELDRLTLPFNEDAVPSDAELRIAQAQLVGWLEGLFHGIQTALFAQQMAARAQLQQMRQGALPPGVGKSGQHGHGTGQYL
stoichiometry N (native MS): 2 | stoichiometry N [3]: 4
